Experimental findings from paper PMC10842004 (Journal of molecular biology, 2023) are described below.

The target of this test is ubiquitin (UniProt P0CG48 1-76). As to the kind of experiment: NMR titration.

B1: RAD23A UBA1 domain (aa 160–205) (domain or fragment)
chain: not shown
Turning to B1, the binding result is given as “binds”.
